Measured values reported in publication PMC5344419, “The structure of FKBP38 in complex with the MEEVD tetratricopeptide binding-motif of Hsp90” (PLoS ONE, 2017).
Entries after “also recorded” stand apart in the source; their conditions may differ.

Test system: yeast Hsp90
Test: ATPase activity of yeast Hsp90
Format: biochemical
Settings: ATPase assay, 5-molar excess of FKBP^92-380 over Hsp90 (Fig 7)

Molecule | effect on ATPase activity of Hsp90
FKBP^92-380: fragment containing both the immunophilin and TPR domain (protein, left off: His6 (from the vector pDMXV4), C-terminal, kept, fragment containing both the immunophilin and TPR domain) EWLDILGNGLLRKKTLVPGPPGSSRPVKGQVVTVHLQTSLENGTRVQEEPELVFTLGDCDVIQALDLSVPLMDVGETAMVTADSKYCYGPQGRSPYIPPHAALCLEVTLKTAVDGPDLEMLTGQERVALANRKRECGNAHYQRADFVLAANSYDLAIKAITSSAKVDMTFEEEAQLLQLKVKCLNNLAASQLKLDHYRAALRSCSLVLEHQPDNIKALFRKGKVLAQQGEYSEAIPILRAALKLEPSNKTIHAELSKLVKKHAAQRSTETALYRKMLGNPSRLPAKCPG | did not substantially alter
FKBP8: immunophilin with N-terminal glutamate rich region, PPIase domain and tetratricopeptide domain; construct not specified at the place (protein, left off: His6, C-terminal, kept, immunophilin with N-terminal glutamate rich region, PPIase domain and tetratricopeptide domain; construct not specified at the place) MASCAEPSEPSAPLPAGVPPLEDFEVLDGVEDAEGEEEEEEEEEEEDDLSELPPLEDMGQPPAEEAEQPGALAREFLAAMEPEPAPAPAPEEWLDILGNGLLRKKTLVPGPPGSSRPVKGQVVTVHLQTSLENGTRVQEEPELVFTLGDCDVIQALDLSVPLMDVGETAMVTADSKYCYGPQGRSPYIPPHAALCLEVTLKTAVDGPDLEMLTGQERVALANRKRECGNAHYQRADFVLAANSYDLAIKAITSSAKVDMTFEEEAQLLQLKVKCLNNLAASQLKLDHYRAALRSCSLVLEHQPDNIKALFRKGKVLAQQGEYSEAIPILRAALKLEPSNKTIHAELSKLVKKHAAQRSTETALYRKMLGNPSRLPAKCPG | did not substantially influence; also recorded: did not show any substantial effect
